{"source": "paper PMC11514473", "about": "“The transition state for coupled folding and binding of a disordered DNA binding domain resembles the unbound state” (Nucleic Acids Research, 2024)", "test_in_all_cases": "stopped-flow fluorescence (koff/kon); 10 mM Mg2+; 10 mM MES pH 6.5, 150 mM NaCl, 10 mM MgCl2, 0.05% Tween-20, 25 C; NMR: 10 mM Tris-d11, 150 mM NaCl, 10 mM MgCl2, 1 mM NaN3, 5% D2O (NOE at 25 C)", "conditions_in_all_cases": "protein: recombinant; tags: extra N-terminal Gly; chain copies: 2; label: 5' Alexa Fluor 488; hairpin (self-annealing, 11 bp stem, CCCC loop)", "key": {"[1]": {"molecular_target": "T1, 285bZIP M291A (human, UniProt P16220-1 285-339, C300S;C310S;C337S;M291A)", "T1 sequence": "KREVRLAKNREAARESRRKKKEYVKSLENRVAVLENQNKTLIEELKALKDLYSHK"}, "[2]": {"molecular_target": "T2, 285bZIP E299G (human, UniProt P16220-1 285-339, C300S;C310S;C337S;E299G)", "T2 sequence": "T1 sequence with A7M, E15G"}, "[3]": {"molecular_target": "T3, 285bZIP E299G/E306G (human, UniProt P16220-1 285-339, C300S;C310S;C337S;E299G;E306G)", "T3 sequence": "T1 sequence with A7M, E15G, E22G"}, "[4]": {"molecular_target": "T4, 285bZIP K309G (human, UniProt P16220-1 285-339, C300S;C310S;C337S;K309G)", "T4 sequence": "T1 sequence with A7M, K25G"}, "[5]": {"molecular_target": "T5, 285bZIP E299A/E306A (human, UniProt P16220-1 285-339, C300S;C310S;C337S;E299A;E306A)", "T5 sequence": "T1 sequence with A7M, E15A, E22A"}, "[6]": {"molecular_target": "T6, 285bZIP K309A (human, UniProt P16220-1 285-339, C300S;C310S;C337S;K309A)", "T6 sequence": "T1 sequence with A7M, K25A"}, "[7]": {"molecular_target": "T7, 285bZIP V288A (human, UniProt P16220-1 285-339, C300S;C310S;C337S;V288A)", "T7 sequence": "T1 sequence with V4A, A7M"}, "[8]": {"molecular_target": "T8, 285bZIP E295A (human, UniProt P16220-1 285-339, C300S;C310S;C337S;E295A)", "T8 sequence": "T1 sequence with A7M, E11A"}, "[9]": {"molecular_target": "T9, 285bZIP M291G (human, UniProt P16220-1 285-339, C300S;C310S;C337S;M291G)", "T9 sequence": "T1 sequence with A7G"}}, "note": "Positions count from the first letter of the chain named.", "data": [{"binder": "CCTGACGTCAGCCCCCTGACGTCAGG (structured_DNA)", "note": "[AlexaFluor488-CREh]", "values": [{"measurement": "Kd", "setting": "[1]", "result": "0.31 ± 0.03", "unit": "nM"}, {"measurement": "Kd", "setting": "[2]", "result": "2.72 ± 0.15", "unit": "nM"}, {"measurement": "Kd", "setting": "[3]", "result": "54 ± 4", "unit": "nM"}, {"measurement": "Kd", "setting": "[4]", "result": "26 ± 2", "unit": "nM"}, {"measurement": "Kd", "setting": "[5]", "result": "0.0415 ± 0.0008", "unit": "nM"}, {"measurement": "Kd", "setting": "[6]", "result": "2.12 ± 0.08", "unit": "nM"}, {"measurement": "Kd", "setting": "[7]", "result": "0.46 ± 0.05", "unit": "nM"}, {"measurement": "Kd", "setting": "[8]", "result": "0.239 ± 0.016", "unit": "nM"}, {"measurement": "Kd", "setting": "[9]", "result": "5.2 ± 0.7", "unit": "nM"}]}]}
